Test results reported in patent publication US20230158141A1 (YAFEI SHANGHAI BIOLOG MEDICINE SCIENCE AND TECHNOLOGY, published 2023).
Substitutions are numbered along the chain they refer to. Numbers in names are those of the source.

B1: anti-PD-1 antibody 1 light chain G28C-R4-5 (antibody, human IgG4 S228P, kappa, V domains shown)
VH: QVQLVQSGVEVKKPGASVKVSCKASGYTFTNYYMYWVRQAPGQGLEWMGGINPSNGGTNFNEKFKNRVTLTTDSSTTTAYMELKSLQFDDTAVYYCARRDYRFDMGFDYWGQGTTVTVSS
VL: EIVLTQSPATLSLSPGERATLSCRASKCVSTSGYSYLHWYQQKPGQAPRLLIYLASYLESGVPARFSGSGSGTDFTLTISSLEPEDFAVYYCQHSRDLPLTFGGGTKVEIKR
modifications: R4-5 on Cys 28
B2: anti-PD-1 antibody 1 light chain S35C-R4-1 (antibody, human IgG4 S228P, kappa, V domains shown)
VH: B1 VH
VL: B1 VL with C28G, S35C
modifications: R4-1 on Cys 35
B3: anti-PD-1 antibody 1 light chain S30C-R4-1 (antibody, human IgG4 S228P, kappa, V domains shown)
VH: B1 VH
VL: B1 VL with C28G, S30C
modifications: R4-1 on Cys 30
B4: anti-PD-1 antibody 1 light chain T31C-R4-1 (antibody, human IgG4 S228P, kappa, V domains shown)
VH: B1 VH
VL: B1 VL with C28G, T31C
modifications: R4-1 on Cys 31
B5: anti-PD-1 antibody 1 light chain S60C-R4-1 (antibody, human IgG4 S228P, kappa, V domains shown)
VH: B1 VH
VL: B1 VL with C28G, S60C
modifications: R4-1 on Cys 60
B6: anti-PD-1 antibody 1 heavy chain K63C-R4-7 (antibody, human IgG4 S228P, kappa, V domains shown)
VH: B1 VH with K63C
VL: B1 VL with C28G
modifications: R4-7 on Cys 63
B7: anti-PD-1 antibody 1 heavy chain S54C-R4-1 (antibody, human IgG4 S228P, kappa, V domains shown)
VH: B1 VH with S54C
VL: B1 VL with C28G
modifications: R4-1 on Cys 54
B8: anti-PD-1 antibody 1 heavy chain T30C-R4-1 (antibody, human IgG4 S228P, kappa, V domains shown)
VH: B1 VH with T30C
VL: B1 VL with C28G
modifications: R4-1 on Cys 30
B9: anti-PD-1 antibody 1 heavy chain T58C-R4-1 (antibody, human IgG4 S228P, kappa, V domains shown)
VH: B1 VH with T58C
VL: B1 VL with C28G
modifications: R4-1 on Cys 58
B10: anti-PD-1 antibody 2 heavy chain A61C-R4-4 (antibody, human IgG4 S228P, kappa, V domains shown)
VH: QVQLVESGGGVVQPGRSLRLDCKASGITFSNSGMHWVRQAPGKGLEWVAVIWYDGSKRYYCDSVKGRFTISRDNSKNTLFLQMNSLRAEDTAVYYCATNDDYWGQGTLVTVSS
VL: EIVLTQSPATLSLSPGERATLSCRASQSVSSYLAWYQQKPGQAPRLLIYDASNRATGIPARFSGSGSGTDFTLTISSLEPEDFAVYYCQQSSNWPRTFGQGTKVEIKR
modifications: R4-4 on Cys 61
B11: anti-PD-1 antibody 2 heavy chain K65C-R4-7 (antibody, human IgG4 S228P, kappa, V domains shown)
VH: B10 VH with C61A, K65C
VL: B10 VL
modifications: R4-7 on Cys 65
B12: anti-PD-1 antibody 2 heavy chain S32C-R4-1 (antibody, human IgG4 S228P, kappa, V domains shown)
VH: B10 VH with S32C, C61A
VL: B10 VL
modifications: R4-1 on Cys 32
B13: anti-PD-1 antibody 2 heavy chain S30C-R4-1 (antibody, human IgG4 S228P, kappa, V domains shown)
VH: B10 VH with S30C, C61A
VL: B10 VL
modifications: R4-1 on Cys 30
B14: anti-PD-1 antibody 2 heavy chain Y53C-R4-4 (antibody, human IgG4 S228P, kappa, V domains shown)
VH: B10 VH with Y53C, C61A
VL: B10 VL
modifications: R4-4 on Cys 53
B15: anti-PD-1 antibody 2 heavy chain K57C-R4-7 (antibody, human IgG4 S228P, kappa, V domains shown)
VH: B10 VH with K57C, C61A
VL: B10 VL
modifications: R4-7 on Cys 57
B16: anti-CTLA-4 antibody heavy chain D106C-R4-3 (antibody, human IgG1, kappa, V domains shown)
VH: QVQLVESGGGVVQPGRSLRLSCAASGFTFSSYTMHWVRQAPGKGLEWVTFISYDGNNKYYADSVKGRFTISRDNSKNTLYLQMNSLRAEDTAIYYCARTGWLGPFCYWGQGTLVTVSS
VL: not shown
modifications: R4-3 on Cys 106
B17: anti-CTLA-4 antibody heavy chain K58C-R4-7 (antibody, human IgG1, kappa, V domains shown)
VH: B16 VH with K58C, C106D
VL: not shown
modifications: R4-7 on Cys 58
B18: anti-CTLA-4 antibody heavy chain S31C-R4-1 (antibody, human IgG1, kappa, V domains shown)
VH: B16 VH with S31C, C106D
VL: not shown
modifications: R4-1 on Cys 31
B19: anti-CTLA-4 antibody heavy chain S30C-R4-1 (antibody, human IgG1, kappa, V domains shown)
VH: B16 VH with S30C, C106D
VL: not shown
modifications: R4-1 on Cys 30
B20: anti-CTLA-4 antibody heavy chain K65C-R4-7 (antibody, human IgG1, kappa, V domains shown)
VH: B16 VH with K65C, C106D
VL: not shown
modifications: R4-7 on Cys 65
B21: anti-CTLA-4 antibody heavy chain Y59C-R4-4 (antibody, human IgG1, kappa, V domains shown)
VH: B16 VH with Y59C, C106D
VL: not shown
modifications: R4-4 on Cys 59
B22: anti-CD28 antibody light chain G99C-R4-1 (antibody, human IgG4, kappa, V domains shown)
VH: QVQLVQSGAEVKKPGASVKVSCKASGYTFTSYYIHWVRQAPGQGLEWIGCIYPGNVNTNYNEKFKDRATLTVDTSISTAYMELSRLRSDDTAVYFCTRSHYGLDWNFDVWGQGTTVTVSS
VL: not shown
modifications: R4-1 on Cys 99
B23: anti-CD28 antibody light chain T93C-R4-1 (antibody, human IgG4, kappa, V domains shown)
VH: B22 VH
VL: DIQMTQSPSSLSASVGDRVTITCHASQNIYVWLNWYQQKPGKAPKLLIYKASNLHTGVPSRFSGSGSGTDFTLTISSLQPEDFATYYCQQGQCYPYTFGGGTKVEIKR
modifications: R4-1 on Cys 93
B24: anti-CTLA-4 antibody light chain L34C (antibody, human IgG1, kappa, V domains shown)
VH: B16 VH with C106D
VL: not shown
B25: anti-CTLA-4 antibody light chain A56C (antibody, human IgG1, kappa, V domains shown)
VH: B16 VH with C106D
VL: not shown
B26: anti-CTLA-4 antibody light chain A35C (antibody, human IgG1, kappa, V domains shown)
VH: B16 VH with C106D
VL: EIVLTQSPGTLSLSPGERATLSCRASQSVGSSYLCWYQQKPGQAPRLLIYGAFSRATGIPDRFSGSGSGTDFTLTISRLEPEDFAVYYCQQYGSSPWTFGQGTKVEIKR
B27: anti-CTLA-4 antibody light chain T98C (antibody, human IgG1, kappa, V domains shown)
VH: B16 VH with C106D
VL: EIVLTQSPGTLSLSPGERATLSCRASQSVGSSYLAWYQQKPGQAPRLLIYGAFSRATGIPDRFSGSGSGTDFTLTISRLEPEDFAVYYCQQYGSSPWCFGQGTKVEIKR
B28: anti-CTLA-4 antibody heavy chain D54C (antibody, human IgG1, kappa, V domains shown)
VH: B16 VH with D54C, C106D
VL: not shown
B29: anti-CTLA-4 antibody heavy chain Y107C (antibody, human IgG1, kappa, V domains shown)
VH: B16 VH with C106D, Y107C
VL: not shown
B30: anti-CTLA-4 antibody heavy chain Y32C (antibody, human IgG1, kappa, V domains shown)
VH: B16 VH with Y32C, C106D
VL: not shown
B31: anti-CTLA-4 antibody heavy chain D62C (antibody, human IgG1, kappa, V domains shown)
VH: B16 VH with D62C, C106D
VL: not shown
B32: anti-CTLA-4 antibody heavy chain I51C (antibody, human IgG1, kappa, V domains shown)
VH: B16 VH with I51C, C106D
VL: not shown
B33: anti-CTLA-4 antibody light chain A52C (antibody, human IgG1, kappa, V domains shown)
VH: B16 VH with C106D
VL: not shown
B34: anti-CTLA-4 antibody light chain Y33C (antibody, human IgG1, kappa, V domains shown)
VH: B16 VH with C106D
VL: not shown
B35: anti-CTLA-4 antibody light chain Y92C (antibody, human IgG1, kappa, V domains shown)
VH: B16 VH with C106D
VL: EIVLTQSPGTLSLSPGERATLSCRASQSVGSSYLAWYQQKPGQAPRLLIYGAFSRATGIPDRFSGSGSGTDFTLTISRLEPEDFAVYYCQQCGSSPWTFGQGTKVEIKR
B36: anti-CTLA-4 antibody heavy chain K58C (antibody, human IgG1, kappa, V domains shown)
VH: B16 VH with K58C, C106D
VL: not shown
B37: anti-CTLA-4 antibody heavy chain Y53C (antibody, human IgG1, kappa, V domains shown)
VH: B16 VH with Y53C, C106D
VL: not shown
B38: anti-CTLA-4 antibody heavy chain D106C (antibody, human IgG1, kappa, V domains shown)
VH: B16 VH
VL: not shown
B39: anti-CTLA-4 antibody heavy chain K65C (antibody, human IgG1, kappa, V domains shown)
VH: B16 VH with K65C, C106D
VL: not shown
B40: anti-CTLA-4 antibody heavy chain Y59C (antibody, human IgG1, kappa, V domains shown)
VH: B16 VH with Y59C, C106D
VL: not shown
B41: anti-CTLA-4 antibody heavy chain Y60C (antibody, human IgG1, kappa, V domains shown)
VH: B16 VH with Y60C, C106D
VL: not shown

target: T1, PD-1 (UniProt Q15116 25-167, limits assumed); experiment: ELISA, conjugate vs WT antibody
T1 sequence (Q15116 25-167 limits assumed): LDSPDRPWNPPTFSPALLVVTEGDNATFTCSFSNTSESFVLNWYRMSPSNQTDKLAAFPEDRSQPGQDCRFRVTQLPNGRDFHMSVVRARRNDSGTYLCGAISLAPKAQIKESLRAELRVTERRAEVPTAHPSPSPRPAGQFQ

| binding activity (% of WT) [%] | Binder |
| --- | --- |
| 108 | B1 |
| 88.3 | B2 |
| 86.9 | B3 |
| 84.4 | B4 |
| 89.4 | B5 |

target: T1, PD-1; experiment: ELISA, conjugate vs WT antibody; remark: another data set of the same source

| binding activity (% of WT) [%] | Binder |
| --- | --- |
| 95.2 | B6 |
| 104 | B7 |
| 91.2 | B8 |
| 93.9 | B9 |

target: T1, PD-1; experiment: ELISA, conjugate vs WT antibody; remark: another data set of the same source

| binding activity (% of WT) [%] | Binder |
| --- | --- |
| 83.9 | B10 |
| 92.1 | B11 |
| 86.8 | B12 |
| 107 | B13 |
| 91.6 | B14 |
| 89.7 | B15 |

target: T2, CTLA-4 (UniProt P16410 36-162, limits assumed); experiment: ELISA, conjugate vs WT antibody
T2 sequence (P16410 36-162 limits assumed): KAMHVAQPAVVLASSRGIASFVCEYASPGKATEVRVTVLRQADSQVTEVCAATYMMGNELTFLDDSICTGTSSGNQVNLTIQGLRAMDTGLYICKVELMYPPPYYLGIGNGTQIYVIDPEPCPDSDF

| binding activity (% of WT) [%] | Binder |
| --- | --- |
| 87.6 | B16 |
| 87.6 | B17 |
| 110 | B18 |
| 93.4 | B19 |
| 96.2 | B20 |
| 89.1 | B21 |

target: CD28 (UniProt P10747 19-152, limits assumed); experiment: ELISA, conjugate vs WT antibody

| binding activity (% of WT) [%] | Binder |
| --- | --- |
| 96.6 | B22 |
| 87 | B23 |

target: T2, CTLA-4; experiment: ELISA, OD mutant/OD WT; B=70-90%

| binding activity (OD after mutation/OD wild type) [%] | Binder |
| --- | --- |
| 70 to 90 | B24 |
| 70 to 90 | B25 |
| 70 to 90 | B26 |
| 70 to 90 | B27 |

target: T2, CTLA-4; experiment: ELISA, OD mutant/OD WT; B=70-90%; remark: another data set of the same source

| binding activity (OD after mutation/OD wild type) [%] | Binder |
| --- | --- |
| 70 to 90 | B28 |
| 70 to 90 | B29 |
| 70 to 90 | B30 |
| 70 to 90 | B31 |
| 70 to 90 | B32 |

target: T2, CTLA-4; experiment: ELISA, OD mutant/OD WT; ↓=less than 70%

| binding activity vs wild type [%] | Binder |
| --- | --- |
| < 70 | B33 |
| < 70 | B34 |
| < 70 | B35 |

target: T2, CTLA-4; experiment: ELISA, OD mutant/OD WT; ↓=less than 70%; remark: another data set of the same source

| binding activity vs wild type [%] | Binder |
| --- | --- |
| < 70 | B36 |
| < 70 | B37 |
| < 70 | B38 |
| < 70 | B39 |
| < 70 | B40 |
| < 70 | B41 |
